Among the targets are Connexin 40 (human) (UniProt P36382); Connexin 37 (human) (UniProt P35212); Connexin 43 (human) (UniProt P17302).
Common to all, as to assay: cell-based or functional assay

Chain of UniProt P17302 (P17302 2-382): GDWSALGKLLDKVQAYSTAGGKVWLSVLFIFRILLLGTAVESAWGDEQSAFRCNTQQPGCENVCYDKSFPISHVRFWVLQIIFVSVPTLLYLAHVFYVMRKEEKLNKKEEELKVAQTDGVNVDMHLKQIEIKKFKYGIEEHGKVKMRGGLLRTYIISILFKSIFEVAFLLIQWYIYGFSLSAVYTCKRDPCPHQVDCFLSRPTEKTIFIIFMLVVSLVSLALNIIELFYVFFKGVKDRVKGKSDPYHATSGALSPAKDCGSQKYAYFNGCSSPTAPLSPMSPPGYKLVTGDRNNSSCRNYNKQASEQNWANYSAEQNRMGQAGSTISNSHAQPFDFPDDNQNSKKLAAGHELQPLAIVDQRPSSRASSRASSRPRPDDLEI
Chain of UniProt P36382 (P36382 whole entry): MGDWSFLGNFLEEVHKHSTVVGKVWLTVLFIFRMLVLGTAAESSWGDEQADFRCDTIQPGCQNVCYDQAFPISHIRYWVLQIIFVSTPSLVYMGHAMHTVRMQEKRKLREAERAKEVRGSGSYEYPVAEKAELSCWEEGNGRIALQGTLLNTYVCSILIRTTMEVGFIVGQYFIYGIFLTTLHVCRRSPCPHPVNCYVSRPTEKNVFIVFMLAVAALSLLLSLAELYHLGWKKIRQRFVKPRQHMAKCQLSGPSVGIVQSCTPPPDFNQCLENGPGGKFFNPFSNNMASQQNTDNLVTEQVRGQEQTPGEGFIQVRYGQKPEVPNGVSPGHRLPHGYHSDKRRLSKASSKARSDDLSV
Chain of UniProt P35212 (P35212 whole entry): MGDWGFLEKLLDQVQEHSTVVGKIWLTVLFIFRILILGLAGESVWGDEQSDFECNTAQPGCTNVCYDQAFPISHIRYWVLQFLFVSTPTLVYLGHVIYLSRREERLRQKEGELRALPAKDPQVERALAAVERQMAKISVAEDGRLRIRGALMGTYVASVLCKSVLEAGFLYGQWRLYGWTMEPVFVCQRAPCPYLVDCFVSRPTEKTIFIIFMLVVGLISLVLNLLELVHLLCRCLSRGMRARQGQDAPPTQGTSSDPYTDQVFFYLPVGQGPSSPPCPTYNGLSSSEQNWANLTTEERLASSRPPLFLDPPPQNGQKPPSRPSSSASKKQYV

Regarding mimetic peptide 40Gap27, in the experiment with Connexin 40 (human), the decrease in Lucifer Yellow dye-coupling (GJIC) in HAEC after 5 hours of flow came to 33% and the decrease in Lucifer Yellow dye-coupling (GJIC) in HAEC after 16 hours of flow was 57%.

Cx mimetic peptide 43,37Gap27: the Lucifer Yellow dye-coupling (GJIC) in HAEC after 16 hours of flow with Connexin 37 (human) and with Connexin 43 (human) was 26% throughout. Moreover, the decrease in flow-induced GJIC (dye-coupling) in HAEC with Connexin 37 (human) and with Connexin 43 (human) was 25% each time.

The values are drawn from patent publication US20070280985A1.
